Test results: FireProtDB (doi:10.1126/science.aai7825)

Settings: Escherichia coli (strain K12); pH 7.5; Thermal; Intensity; HEPES 20mM; transition: 2

Chain of Adenylate kinase wild type, P69441 (P69441 whole entry): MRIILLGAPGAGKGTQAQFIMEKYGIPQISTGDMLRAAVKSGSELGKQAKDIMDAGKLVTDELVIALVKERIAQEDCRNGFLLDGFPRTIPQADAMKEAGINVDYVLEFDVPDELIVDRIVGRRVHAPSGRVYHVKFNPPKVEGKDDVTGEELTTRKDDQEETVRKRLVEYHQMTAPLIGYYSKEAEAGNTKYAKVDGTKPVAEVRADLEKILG

Adenylate kinase wild type, P69441 gave a Tm of 42.5 °C.
